# Experimental data as given in the RNAGym collection of RNA variant scans (doi:10.1073/pnas.2313332121).
# B1: TPR t1 (parent)
# chain: GACCAAUCUGCCCUCAGAGCUCGAGAACAUCUUCGGAUGCAGAGGAGGCAGGCUUCGGUGGCGCGAUAGCGCCAACGUCCUCAACCUCCAAUGCAUCCCACCACAUGAUGAUGCCUGAAGAGCCUUGGUUUUUUG
# Variants of: B1
# Test: polymerase ribozyme fitness, log enrichment relative to wild type (log ratio); higher = more active; in vitro selection for triplet polymerase activity
# Procedure, shortened: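 Only genotypes with ≥10 input reads and ≥1 read per output were kept after Illumina sequencing of input and output libraries. These libraries were PCR-built, transcribed mutants of each subunit of a heterodimeric triplet polymerase ribozyme, each put through one triplicate in vitro selection round with frozen incubation at −7 °C, gel excision of extended constructs, streptavidin-bead capture and RT-PCR. Fitness is a logarithmic ratio of genotype enrichment to wild-type enrichment, from inverse-variance-weighted replicate averages, with the logarithm in base 2.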
row,Variant,polymerase ribozyme fitness (log ratio)
1,GACCAAUCUGCCCUCAGAGCUCGAGAACAUCUUCGGUUGCAGAGGAGGCGGGCUUCGGUGGCGCGAUAGCGCCAACGUCCUCAACCUCCAAUGCAUCCCACCACAUGAUGAUGCCUGAAGAGCCUUGGUUUUUUG,-0.867
2,GACCAAUCUGCCCUCAGAGCUCGAGAACAUCUUCGGAUGCAGAGGAGGCAGGCUUCGGUGGCGCGAUGCCGCCAACGUCCUUAACCUCCAAUGCAUCCCACCACAUGAUGAUACCUGAAGAGCCUUGUUUUUUUG,-4.89
3,GACCAAUCUGCCCUCAGAGCUCGAGAACAUCUUCGGAUGCAGAGGAGGCAGGCUUCGGUGGCGCGAUAACGCUAACGUCCUCAACCUCCAAUGCAGCCCACCACAUGAUGAUGCCUGAAGAGCCUUGGUUUUUUG,-3.55
4,GACCGAUCUGCCUUCAGAGCUCGAGAACAUCUUCGGAUGCAGAGGUGGCAGGCUUAGGUGGCGCGAUAGCGGCAACGACCUCAACCUCCAAUGCAUCCCACCACAUGAUAAUGCCUGAAGAGCCUUGGUUUUUUG,-3.02
5,GACCAAUCUACCCUCAGAGCUCGAGAUCAUCUUCGGAUGCAAAGGAGGCAGGCUUCGGUGGCGCGAUAGUGCCAACGUCCUCAACCUCCAAUGCAUCCAACCACAUGAUGAUGCCUGAAGAGCCUUGGUUUUUUG,-6.56
6,GACCAAUCUGCCCUCAGAGGUCGAGAACAUCUUCUGAUGCAGAGGAGGCAGGCUUCGGUGGCGCGAUAGCGCCAACGUCCUCAACCUCCAAUGCCUCCCACCACAUGAUGAUGCCUUAAGAGCCUUGGUUUUUUG,-4.02
7,GACCAAUCUGCCCUCAGAGCUCGAGAACAUCUUCGGAUUAAGGGGAGGCAGGCUUGGGUGGCGCGAUAGCGCCAACGUCCUCAACCUCCAAUGCAUCCCACCAUAUGAUGAUGCCUGAAGAGCCUUGGUCUUUUG,-4.61
8,GACCAAUCUGCCCUCAGAGCUCGAGAACAUGUUCGGAUGCAGAGGAGGCAGGCUUCGGUGGCGCGAUAGCGACAACGUCCUCAACCUCCAAUGCAUCCCACCACAUGAUGAUGCCUGAAGAGCCUUGGUUUUUUG,-6.86
9,GACCAAUCUGCCCUCAGAGCUCGAGAACAUCUUCGGAUGCAGAGGAGGCAGGCUUCGGUGGCGCGAUAGCGCGAACGUCCUCAACCUCCAAUGCAUCCCACCACAUGAUGAUGCCUGAAGAUGCUUGGUUUUUUG,0.776
10,GACCAAUCUGCCCUCAGAGCUCGAGAACAUCUUCGGAUGCAGAGGAGGCAGGCUUCGGUGGCACGAUAGCGCCAACGUCCUCAACCUCCAAUACAUCCCACCACAUGAUGAUGCCUGAAGAGCCUUGGUUUUUUG,-1.38
11,GACCAAUCUGCCCUCAGAGCUCGAGAACAUCUUCGGAUGCAGAGGAGGCAGGCUUCGGUGGCGCGAUAGCACCAACGUGCUCAACCUCCAAUGCAUCCCACCACAUGAUGAUGCCUGAAGAGCCUUAGUUUUUUG,-3.33
12,GACCAAUCUGCCCUCAGAGCUCGAGAACAUCUUCGGAUGCAGAGGAGGCAGGCUUCGGUGGCGCGAUACCGCCAACUUCCUCAACCACCAAUGCAUCCCACCACAUGAUGAUGCCUUAAGAGCCUUGGUUUUUUG,-5.49
13,GACCAACCUGCCCUCAGAGCUCGAGAACAUCUUCGGAUGCAGAGGAGGCAGGCUUCGGUGGCGCGAUAGCGCCGACGUCCUCAACCUCCAAUGCAUCCCACCACAUGAUAAUGCCUGUAGAGCCUUGGUUUUUUG,-0.453
14,GACCAAUCUGCCCUCAGAGCUCGAGAAAAUCUUCGGAUGCAGAGGUGGCAGGCGUCGGUGGCGCGAUAGCGCUAACGUCCUGAACCUCCGAUGCAUCCCACCACAUGAUGAUGCCUGAAGAGUCUUGGUUUUUUG,-4.12
15,GACCAAUGUUCCCUCAGAGCUCGAGAACAUCUUCGGAUGCAGAGGAGGCAGGCUUCGGUGGCGCGAUAUCGCCAACGUCCUCAACCUCCAAUGCUUCCCACAACAUGAUGAUGGCUGAAGAGCCUUGGGUUUUUG,-2.33
16,GACCAAUCUGGCCUCUGAGCUCGAGAACAUCUUCGGAUGCAGAGGAGGCAGGCUUCGGUGGCGCGAUAGCGCCAACGUCCUCAACCUCCAAUUCAUCCCCCCACAUGAUGAUGCCUGAAGAGUCUUGGUUUUUUG,-3.13
17,GACCAAUCUGCCCUCAGAGCUCGAGAACAUCUUCGGAUGCAGAGGAGGCAGGCUUCGGUUGCGCGAUAGCGCCAACGUCAUCAACCUCCAAUGCAUCCCACCACAAGAUGAUGCCUGAAGAGCCUUGGUUUUUUG,-3.14
18,GACCAAUCUGCCAUCAGGGCUCGAGAACAUCUUCGGAUGCAGAGGAGGCAGGCUUCGGUGGCGCGAUAGCGCCAACGUCCUCAACCUCCAAUGCAUCGCACCACAUGAUGAUGCCUGAACAGCCUUGGUUUUUUG,-1.26
19,GACCAAUCUGCCCUCAGAGCUCGAGAACAUCUUCGGAUGCAGAGGAGGCAGGCUUCGGUGGCGCGAUAGCGCCAACAUCCUCAACCUCCAAUGCAUCCCACCACAUGAUGAUGCCUGAAUAGCCUUGGUUUUUUG,-0.0426
20,GACCAAUCUGCCCUCAGAGCUCGAGAACAUCUUCGGAUGCUGAGUAGGCAGGCUUCGGUGGCGCGAUAGCGCCAACGUCCUCAACCUCCAAUGCAUCCCACCACAUGAUGAUGCCUGAAGAGCCUUGGUUUUUUG,-1.99
21,GACCAAUCUGCCCUCAGAGCUCGAGAACAUCUUCGGAUGCAGAGGAGGCAGGCUUCGGUGGCGCGAUAGGGCCAACGUCCUCAAACUCCAAUGCAUCCCACCACAUGAUGAUGCCUGAAGAGUCUUGGUAUUCUG,-3.14

row,Variant,polymerase ribozyme fitness (log ratio)
1,GACAAAUCUGCCCUCAGAGCUCGAGAACAUCUUCGGAUGCAGAGGCGGCAGGCUUCGGUGGCGUGAUAGCGCCAACGUCCUCAACCUCCAAUGCAUCCCACCACAUGAUGAUGACUGAAGAGCAUUGGUUGUUUG,-3.27
2,GACCUAUCUGCCCUCAGAGCUCGAGAACAUCUUCGCAUGCAGAGGAGGCAGGCUUCGGUGGCGCGAUAGCGCCAACGUCCUCAACCUCCAAUGCAUCCCACCACAUGAUGAUGCCUGAAGAGCCUUGGUUUUUUG,-1.42
3,GACCAAACUGCCCUCAGAGUUCGAGAACAUCUUCGGAUGCAGAGGAGGCAGGCUUCGGUGGCGCGAUAGCGCCAACGUCCUCAACCUCCAAUGCAUCCCACCACAUGAUGAUGCCUGAAGAGCCUUGGUUUUUUG,-0.343
4,GACCAAUCUGCCCUCAGAGCUCGAGAACAUCUUCGAAUGCAGCGGAGGCAGGCUUCGGUGGCGCGAUAGCGCGAACGUCCUCAACCUCCAAUGCAUCCCACCACAUGAUGAUGCCUGAAGAGCCUUGGUUUUUUG,-4.51
5,GCCCAAUCUGCGCUCAGAGCUCGAGAACAUCUUCGGAUGCAGAGGAGGCAGGCUUCGGUGGCGCGAUAUCGCCAACGUCCUCAACCUCCAAUGCAUCCCACCACAUGAUGAUGCCUGAAGAGCCUUGGUUUUUUG,0.12
6,GACCAAUCUGCCCUGAGAGCUCGAGAACAUCUUCGGCUGCAGAGGAGGUAGGUUUCGGUGGCGCGAUAGCGCCAACGUCCUCAACCUCCAAUGCAUCCCACCACAUGAUGAUGCCUGAAGAGCCUUGGUUUUUUG,-4.47
7,GACCAAUCUGCCCUCAGAGCUCGAGAACAUCUUCGGAUGAAGAGGAGGCAGGCUUCGGUGGCGCGAUAGCGCCAACGUCCUCAACCUCCAAUGCAUCCCACCACAAGAUGAUGCCUGAAGAGCAUUGGUUUUUUG,1.38
8,GACCAAUCUGCCCUCAGAGCUCGAGAACAUCUCCGGAUGCAGAGGAGGCAGGCUUCGGUGGCGCGAUAGCGCCAACGUCCUCAACCUCCAAUGCAUCCUACCACAUGAUGAUGCCUGAAGAGACUUGGUUUUUUG,-7.51
9,GACCAAUCUGCCCUCAGAGCUCGAGAACAUCUUCGGAUGCAGAGGAGGAAGGCUUCGGUGGCGCGAUAGCGCCAACGUCCUCAACCUCCAAUGCAUCCCACCACAUGAUGAUGCCUGAAGAACCUUGGUUUUUUG,-0.428
10,GACCAAUCUGCCCUCAGAGGUCGAGAACAUCAUCGGAUGCAGAGGAGGCAGGGCUCUGUGGCGCGAUAGCGCCAACGUCCUCAACCUCCAAUGCAUGCCACCACAUGAUGAUACCUGAAGAGCCUUGGUUUUUUG,-6.61
11,GACCAAUCUACCCUCAGAGCUCGAGAACAUCUUCGGAUGCAGAGGAGGCAGGCUUCGGUGGAGCGAUAGCGCCAACGUCCUCAACCUCCACUGCAUCCCACCACAUGAUGAUGCCUGAAGAGUCUUGGUUUUUUG,-0.505
12,GACCAAUCUGCCCUCAGCUCUCGAGAACAUCUUCGGAUGCAGAGGAGGCAGGCUUCGGUGGCGCGAUAGCGGCAACGUCCUCAACCUCCAAUGCAUCCCACAAGAAGAUGAUGCCUGAAGAGGCUUGGUUUUUUG,-5.8
13,GACCAAUCUGCCCUCAGAGCUCGAGAACAUCUUCGGAUUCAGAGGAGGCAGGCUUCGGUGGCGCGAUAGCGCCAACGUCCUCAACCUCCAAUGCAUCCCACCACAUGAUGCUGCCUGAAGAGCAUUGGUUUUUUG,0.34
14,GACCAAUCUGCCCUCAGAGCUCGAGAACAUCUUCGGAUGCAGAGGAGGCAGGCUUCGGUAGCGCGAUAGCGCCAACGUCCUCAACCUCAAAUGCAUCCCACCACAUGAUGAUGCCGGAAGAGCCUUGGUUUUUUG,-4.84
15,GACCAAUCUGCCCUCAGAGCUCGAGAACAUCUUCGGAUGCAGAGGAGGCAGGCUUCGGUCGCGCGAUAACGCCAACGUCCUCAACCUCCAAUGCAUCCCACCACAUGAUGAUGCCUGAAGAGCCUUGGUUUUUUG,-4.01
16,GACCAUUCUGCUCUCAGAGCUCGAGAACAUCUUCGGAUGCAGAGGAGGCAGGCUUCGGUGGCGCGAUAGCGCCAACGUCUUCAACCUCCAAUGCAUCCCACCACAUGAUGAUGCCUGAAGAGCCUUGGUUUUUUG,-0.107
17,GACCAAUUUGCCCUCAGAGCUCGAGAACAUCUUUAGAUGCAGAGGAGGCAGGCUUCGGUGGCGCGAUAGCGCCAACGUCCUCAACCUCCAAUGCAUCCCAACACAUGAUGAUGUCUGAAGAGCCUUGGUUUUUUG,-6.15
18,GACCAAUCUGCCCUCACAGCUCGAGAACAUCUUCGGAUGCAGAGGAGGCAGGCUUCGGUGGCGCGAUAGCGCCAACGACCUCAACCUCCAAUGCAUCCCACCACAUGAUGUUGCCUGAAGAGCCUUGGUUUUUUG,-6.19
19,GACCAAUCUGCCCUUAGGGCUCGAGAACAUCUUCGGGUGCAGAGGAGGCAGGCAUCGGUGGCGCCAUAGCGCCAACGUCCUCAACCUCCAAUGCAUCCCUCCACAUGAUGAUGCAUGAAGAGCCUUGGUUUUUUG,-5.35
20,GCCCAAUCUGCCCUCAGAGCUCGAGAACAUCUUCGGAUGCAGAGGAGGCAGCCUUCGGUGGCGCGAUAGCGCCAACGUCCUCAACCUCCAAUGCAUCCCACCACAUGAUGAUGCCUGAAGAGCCUUGGUUUUUUG,-2.58
21,GACCAAGCUGCCCUCAGUGCUCGAGAACAUCUUCGGAUGCAGAGGAGGCAGGCUUCGGUGGCGCGAUAGCGCCAACGUCCUCAACCUCCAAUGCAUCCCACCACAUGAUGAUGCCUGAAGAGCCUUGGUUUUUUG,-0.713
